# What was measured:
# Experiment in all cases: purified protein
# Format in all cases: biochemical, Homo sapiens
# [1] = substrate: Nc1ccn([C@H]2C[C@H](O)[C@@H](COP(=O)(O)OP(=O)(O)OP(=O)(O)O)O2)c(=O)n1; conditions: opposite O2-Me-dT template, Mg2+, pH 8.0, 37 °C
# [2] = substrate: Nc1nc2c(ncn2[C@H]2C[C@H](O)[C@@H](COP(=O)(O)OP(=O)(O)OP(=O)(O)O)O2)c(=O)[nH]1; conditions: opposite O2-Me-dT template, Mg2+, pH 8.0, 37 °C
# [3] = substrate: Nc1ncnc2c1ncn2[C@H]1C[C@H](O)[C@@H](COP(=O)(O)OP(=O)(O)OP(=O)(O)O)O1; conditions: opposite undamaged template dT (P15/T24), Mg2+, pH 8.0, 37 °C
Protein,Km [1],kcat [1],kcat/Km [1],Km [2],kcat [2],kcat/Km [2],Km [3],kcat [3],kcat/Km [3]
pol η (Homo sapiens) (protein) MATGQDRVVALVDMDCFFVQVEQRQNPHLRNKPCAVVQYKSWKGGGIIAVSYEARAFGVTRSMWADDAKKLCPDLLLAQVRESRGKANLTKYREASVEVMEIMSRFAVIERASIDEAYVDLTSAVQERLQKLQGQPISADLLPSTYIEGLPQGPTTAEETVQKEGMRKQGLFQWLDSLQIDNLTSPDLQLTVGAVIVEEMRAAIERETGFQCSAGISHNKVLAKLACGLNKPNRQTLVSHGSVPQLFSQMPIRKIRSLGGKLGASVIEILGIEYMGELTQFTESQLQSHFGEKNGSWLYAMCRGIEHDPVKPRQLPKTIGCSKNFPGKTALATREQVQWWLLQLAQELEERLTKDRNDNDRVATQLVVSIRVQGDKRLSSLRRCCALTRYDAHKMSHDAFTVIKNCNTSGIQTEWSPPLTMLFLCATKFSASAPSSSTDITSFLSSDPSSLPKVPVTSSEAKTQGSGPAVTATKKATTSLESFFQKAAERQKVKEASLSSLTAPTQAPMSNSPSKPSLPFQTSQSTGTEPFFKQKSLLLKQKQLNNSSVSSPQQNPWSNCKALPNSLPTEYPGCVPVCEGVSKLEESSKATPAEMDLAHNSQSMHASSASKSVLEVTQKATPNPSLLAAEDQVPCEKCGSLVPVWDMPEHMDYHFALELQKSFLQPHSSNPQVVSAVSHQGKRNPKSPLACTNKRPRPEGMQTLESFFKPLTH,130.2 ± 11.4 µM,0.00113 ± 5e-05 s⁻¹,8.67 ± 0.333 M⁻¹ s⁻¹,38.4 ± 1.8 µM,0.00065 ± 1.67e-05 s⁻¹,17.5 ± 0.667 M⁻¹ s⁻¹,5.3 ± 0.3 µM,0.817 ± 0.0333 s⁻¹,154000 ± 3830 M⁻¹ s⁻¹
pol κ (Homo sapiens) (protein) MDSTKEKCDSYKDDLLLRMGLNDNKAGMEGLDKEKINKIIMEATKGSRFYGNELKKEKQVNQRIENMMQQKAQITSQQLRKAQLQVDRFAMELEQSRNLSNTIVHIDMDAFYAAVEMRDNPELKDKPIAVGSMSMLSTSNYHARRFGVRAAMPGFIAKRLCPQLIIVPPNFDKYRAVSKEVKEILADYDPNFMAMSLDEAYLNITKHLEERQNWPEDKRRYFIKMGSSVENDNPGKEVNKLSEHERSISPLLFEESPSDVQPPGDPFQVNFEEQNNPQILQNSVVFGTSAQEVVKEIRFRIEQKTTLTASAGIAPNTMLAKVCSDKNKPNGQYQILPNRQAVMDFIKDLPIRKVSGIGKVTEKMLKALGIITCTELYQQRALLSLLFSETSWHYFLHISLGLGSTHLTRDGERKSMSVERTFSEINKAEEQYSLCQELCSELAQDLQKERLKGRTVTIKLKNVNFEVKTRASTVSSVVSTAEEIFAIAKELLKTEIDADFPHPLRLRLMGVRISSFPNEEDRKHQQRSIIGFLQAGNQALSATECTLEKTDKDKFVKPLEMSHKKSFFDKKRSERKWSHQDTFKCEAVNKQSFQTSQPFQVLKKKMNENLEISENSDDCQILTCPVCFRAQGCISLEALNKHVDECLDGPSISENFKMFSCSHVSATKVNKKENVPASSLCEKQDYEAHPKIKEISSVDCIALVDTIDNSSKAESIDALSNKHSKEECSSLPSKSFNIEHCHQNSSSTVSLENEDVGSFRQEYRQPYLCEVKTGQALVCPVCNVEQKTSDLTLFNVHVDVCLNKSFIQELRKDKFNPVNQPKESSRSTGSSSGVQKAVTRTKRPGLMTKYSTSKKIKPNNPKHTLDIFFK,160 ± 30 µM,0.00112 ± 0.0001 s⁻¹,6.83 M⁻¹ s⁻¹,64 ± 12 µM,0.000917 ± 6.67e-05 s⁻¹,14.3 M⁻¹ s⁻¹,1.4 ± 0.1 µM,,53300 M⁻¹ s⁻¹
pol ι (Homo sapiens) (protein) MEKLGVEPEEEGGGDDDEEDAEAWAMELADVGAAASSQGVHDQVLPTPNASSRVIVHVDLDCFYAQVEMISNPELKDKPLGVQQKYLVVTCNYEARKLGVKKLMNVRDAKEKCPQLVLVNGEDLTRYREMSYKVTELLEEFSPVVERLGFDENFVDLTEMVEKRLQQLQSDELSAVTVSGHVYNNQSINLLDVLHIRLLVGSQIAAEMREAMYNQLGLTGCAGVASNKLLAKLVSGVFKPNQQTVLLPESCQHLIHSLNHIKEIPGIGYKTAKCLEALGINSVRDLQTFSPKILEKELGISVAQRIQKLSFGEDNSPVILSGPPQSFSEEDSFKKCSSEVEAKNKIEELLASLLNRVCQDGRKPHTVRLIIRRYSSEKHYGRESRQCPIPSHVIQKLGTGNYDVMTPMVDILMKLFRNMVNVKMPFHLTLLSVCFCNLKALNTAKKGLIDYYLMPSLSTTSRSGKHSFKMKDTHMEDFPKDKETNRDFLPSGRIESTRTRESPLDTTNFSKEKDINEFPLCSLPEGVDQEVFKQLPVDIQEEILSGKSREKFQGKGSVSCPLHASRGVLSFFSKKQMQDIPINPRDHLSSSKQVSSVSPCEPGTSGFNSSSSSYMSSQKDYSYYLDNRLKDERISQGPKEPQGFHFTNSNPAVSAFHSFPNLQSEQLFSRNHTTDSHKQTVATDSHEGLTENREPDSVDEKITFPSDIDPQVFYELPEAVQKELLAEWKRAGSDFHIGHK,93 ± 14 µM,0.00102 ± 6.67e-05 s⁻¹,10.8 ± 1 M⁻¹ s⁻¹,46 ± 2 µM,0.0019 ± 3.33e-05 s⁻¹,41.7 ± 1.67 M⁻¹ s⁻¹,2.6 ± 0.4 µM,0.133 ± 0.01 s⁻¹,51200 ± 4500 M⁻¹ s⁻¹

# Source: paper PMC5081176
